Laboratory results reported in US20260166131A1, “METHOD FOR PROMOTING PATHOLOGICAL TDP-43 PROTEIN DEGRADATION, AND DRUG” (TALENGEN INTERNATIONAL LIMITED, priority 2022, published 2026).
“Also recorded” adds a separate entry of the source.

Molecular target: TDP-43 (Mus musculus, UniProt Q921F2)
Experiment: Immunofluorescence co-localization staining of plasminogen and TDP-43 in gluteal muscle tissue of SOD1-G93A mice
Assay type: in vivo
Set-up: from tissue; host or cells: mouse spinal cord, gluteal muscle, brain, kidney cell nuclei
Details: 1 mg/mouse tail vein every day
Method: Five wild-type male mice and nine male SOD1-G93A mice of similar week-age were selected. Wild-type mice served as the blank control group, and SOD1-G93A mice were observed and recorded from the time of hind leg tremor when they became ill at week 14, and the onset time of each mouse was recorded. Administering to mice 14 days after the onset of the disease. All mice were randomly divided into a vehicle group and a plasminogen administration group according to the onset of the disease: 5 mice in the vehicle group, which were injected with 0.1 ml of vehicle (sodium citrate buffer)/mouse by tail vein every day; 4 mice in the plasminogen administration group, which were injected with 1 mg of plasminogen/0.1 ml of vehicle/mouse by tail vein every day. The vehicle and plasminogen were administered continuously under SPF environment, and the samples were collected at the near-death stage. The longest administration was 61 days. The gluteal muscle tissue collected was fixed in formalin fixative solution. The fixed tissues were dehydrated with gradient alcohol and transparentized with xylene before being embedded in paraffin. The thickness of tissue sections was 3 μm, and the sections were dewaxed and rehydrated and then washed once. The sections were immersed in antigen retrieval working solution (0.01 M sodium citrate buffer) to perform microwave retrieval: preheating for 5 minutes, high heating for 2 minutes, and low heating for 15 minutes. […] The green fluorescence color development of the corresponding anti-plasminogen secondary antibody was performed according to the instructions of the XTSA520 IHC kit (Alpha X Biotech, AXT6202500), washing 3 times with PBS for 5 minutes each time. […] The red fluorescence color development of the corresponding anti-TDP-43 secondary antibody was performed according to the instructions of the XTSA620 IHC kit (Alpha X Biotech, AXT6502500), washing 3 times with PBS for 5 minutes each time. […]

Sequence of TDP-43 (Q921F2 whole entry): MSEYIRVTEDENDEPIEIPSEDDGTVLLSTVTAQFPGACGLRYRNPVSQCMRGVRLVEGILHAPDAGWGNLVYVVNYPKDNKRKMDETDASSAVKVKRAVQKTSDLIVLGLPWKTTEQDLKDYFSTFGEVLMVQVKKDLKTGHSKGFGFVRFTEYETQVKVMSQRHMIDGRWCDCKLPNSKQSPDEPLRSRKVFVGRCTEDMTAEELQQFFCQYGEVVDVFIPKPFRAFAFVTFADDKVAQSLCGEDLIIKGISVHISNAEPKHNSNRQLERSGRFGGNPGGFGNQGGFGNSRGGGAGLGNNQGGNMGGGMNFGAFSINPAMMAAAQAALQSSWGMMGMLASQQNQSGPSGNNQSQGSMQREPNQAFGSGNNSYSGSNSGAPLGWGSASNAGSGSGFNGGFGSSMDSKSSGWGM

B1: plasminogen: human plasminogen purified from human donor plasma, in which human Lys-plasminogen and Glu-plasminogen are >98% (protein)
chain: KVYLSECKTGNGKNYRGTMSKTKNGITCQKWSSTSPHRPRFSPATHPSEGLEENYCRNPDNDPQGPWCYTTDPEKRYDYCDILECEEECMHCSGENYDGKISKTMSGLECQAWDSQSPHAHGYIPSKFPNKNLKKNYCRNPDRELRPWCFTTDPNKRWELCDIPRCTTPPPSSGPTYQCLKGTGENYRGNVAVTVSGHTCQHWSAQTPHTHNRTPENFPCKNLDENYCRNPDGKRAPWCHTTNSQVRWEYCKIPSCDSSPVSTEQLAPTAPPELTPVVQDCYHGDGQSYRGTSSTTTTGKKCQSWSSMTPHRHQKTPENYPNAGLTMNYCRNPDADKGPWCFTTDPSVRWEYCNLKKCSGTEASVVAPPPVVLLPDVETPSEEDCMFGNGKGYRGKRATTVTGTPCQDWAAQEPHRHSIFTPETNPRAGLEKNYCRNPDGDVGGPWCYTTNPRKLYDYCDVPQCAAPSFDCGKPQVEPKKCPGRVVGGCVAHPHSWPWQVSLRTRFGMHFCGGTLISPEWVLTAAHCLEKSPRPSSYKVILGAHQEVNLEPHVQEIEVSRLFLEPTRKDIALLKLSSPAVITDKVIPACLPSPNYVVADRTECFITGWGETQGTFGAGLLKEAQLPVIENKVCNRYEFLNGRVQSTELCAGHLAGGTDSCQGDSGGPLVCFEKDKYILQGVTSWGLGCARPNKPGVYVRVSRFVTWIEGVMRNN
B1 was tested, and the “co-localization of plasminogen with TDP-43 in muscle tissue (cytoplasm and nucleus)” value was “co-localizes with TDP-43”, the “subcellular presence of plasminogen in muscle tissue” value was “present in the cytoplasm (as indicated by Δ) and in the nucleus; also recorded: present in the cytoplasm (as indicated by Δ) and the nucleus” and the “positive staining of plasminogen in muscle tissue” value (up to 61 days, vs vehicle group) was “significantly more”.
